Experimental data: the nanobody polyreactivity screen of Harvey et al. (2022)

Test: yeast display, Sf9 membrane polyspecificity reagent, FACS + sequencing; frameworks hold sequencing errors
In short: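 Sorting gates, low and high (top ~1%), were placed on anti-HA fluorescence to track expression and on streptavidin fluorescence to track reagent binding. A clone's polyreactivity label is taken from the gate it came out of. The reagent was 10% biotinylated, detergent-solubilized Sf9 membrane, applied for 1 hour at 4 °C to galactose-induced yeast display cells.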

Sequence	polyreactivity (PSR sort gate)
QVQLVESGRGLVQAGGSLRLSCAASGSILRNYAMGWYRQAPGKERELVAAISKSGGTTYYADSVKGRFTISRDNAKNTVYLQMNSLKPEDTAVYYCAARPGYLYDYWGQGTQVTVSS	high polyreactivity
QVQLVESGGGLVQAGGSLRLSCAASGSTFGRYAMGWYRQAPGKERELVAAITRGGSTNYADSVKGRFTISRDNAKNTVYLPMNSLKPEDTAVYYCAADKPGIFSRFDYWGQGTQVTVSS	low polyreactivity
QVQLVESGGGLVQAGGSLRFSCAASGSTFRAYAMGWYRQAPGKEREFVASISWSGGRTYYADSVKGRFTISRDNAKNTVYLQMNSLIPEDTAVYYCAADYDVLDYGNLRYGFDYWGQGTKVTVSS	low polyreactivity
QVQLVESGGGLVQAGGSLRLSCAASGFTFAYNAMGWYRQAPGKERELVAAISRSGARTYYADSVKGRFTISRDNAKNTVYLQMNSLKPEDTAVYYCNARDYTLYGYWGQGTQVTVSS	high polyreactivity
QVQLVESGGGLVQAGGSLRLSCAASGFTFRDYAMGWYRQAPGKERELVAAITRSGGRTYYADSVKGRFTISRDNAKNTVYLQMNSLKPEDTAVYYCNALDYLYGGIYLEEDYWGQGTQVTVSS	low polyreactivity
QDQLVESGGGLVQAGGSLRLSCAASGSTISGSAMGWYRQAPGKVRELVATMSRGGSTTYADSVKGRFTISRDNAKNTVYLQMNSLKPEDTAVYYCAAQTYVWWVKYHSGGQGTQVTVSS	low polyreactivity
QVQLVESGGGLVQAGGSLRLSCAASGSTFPTYVMGWYRQAPGKERELVASINSDTGTYYADSVKGRFTISRDNAQNTVYLQMNSLKPEDTAVYYCNARQAYYFYPFEYDYWGQGTQVTVSS	low polyreactivity
QVQLVESGGGLVQAGGSLRLSCAAFGRIFQYYAMGWYRQAPGKERELVAAITRSGGSTYYADSVKGRFTISRDNAKNTVYLQMNSLKPEDTAVYYCAAYSRYTVREGYDYWGQGTQVTVSS	high polyreactivity
QVQLVESGGGLVQAGGSLRLICAASGRTFKQYAMGWSRQAPGTERELVAAITSSGGSTYYADSVKGRFTISRDNAKNTVYLQMNSLKPEDTAVYYCAAATRGSGRRYDYWGQGTQVTVSS	high polyreactivity
QVQLVESGGGLVQAGGSLRLSCAASGRTFWYYTMGWYRQAPGKERELVAAISSGGRTNYADSVKGRFTISRDNAKITVYLQMNSLKPEDTAVYYCATSRYYKYVERDYWGQGTQVTVSS	high polyreactivity
QVQLVESGGGLVQAGGSLRLSCAASGSTFKYYTMGWYRQAPGKERELVAAITSGGSTNYADSVKGRFTISRDNAKNTVYLQMNSLNPEDTAVYYCAAGGRRFYVGVIYDYWGQGNQVTVSS	high polyreactivity
QVQLVESGGGLVQAGGSLRLSCAASGRTFAYNAMGWYRQAPGKERELVAAISSSGGSTYYADSVKGRFTISRDNAKNTVYLQMNSLKPEDTAGYYCATQGFSWAHGSDYWGQGTQVTVSS	low polyreactivity
QVQLVESGGGLVQAGGSLRLSCSASGRIFPRNAMGWYRQAPGKERHLVAAISQSGTSTYYADSVKGRFTISRDNAQKTVYLQMNSLKREDTAVYYCAASGWDHVIVEYDYWGEGTQVTVSS	low polyreactivity
QVQLVEAGGGLVQAGGSLRLSCAASGRIFYSNAMGWCRQAPGKERELVAAITWRGGSTYYADSVKGRFTISRDNAKNTVYLQMNSLKPEDTAVYYCATDGYDDTHYYYLGQGTQVTVSS	low polyreactivity
QVQLVESGGGLVQAGGSLRLSCAASGLIFYYYTMGWYIQAPGKVRELVAAISSAGSTYYADSVKGRFTISRDNAKNTVYLQMNSLKPEDTEVYYCATRSQAQYTRYYGYRQFYYWGQGTQVTVSS	high polyreactivity
QVQLVESGGGLVQAGGSLRLSCAASGSIFVFYDMGWYRQAPGKERELVATISSGGGGTYYTDSVKGRFTISRDNAKNTVYLQLNSLKPEDTAVYYCAAEGDKYGKGYGYWGQGTQVTVSS	low polyreactivity
QVQLEESGGGLVQAGGSLRLSCAASGFTFTYYAMGWYRQAPGKERELVASISYSGGSTYYADSVKGRFTISRDNAKNTVYLQMNSLKPEDTAVYYGAARTRHVHYGYWGQVTQVTVSS	high polyreactivity
QVQHVESGGGLVQAGGSLRLSCASSGRTFYEYAMGWYRQAPGKERELVAGITSGGSTNYADSVKGRFTISRDNAKNTVYLQMNSLKPEDTAVYYCAASYWGYEYDYWGQGTQVTVSS	low polyreactivity
QVQLVESGGGLVQAGGSLRLSCAASGFTFWLYAMGWYRQAPGKERELVATISWSGGSTYYADSVKGRFTISRDNAKNTVYLQMNSLKPEDTAVYYCAARLNYGNKYDYWGQGTQVTVSS	high polyreactivity
QVQLVESGGGLVQAGGSLRLSCAASGRIFISYTMGLYRHAPGKERELVAGIDSSGTSTYYADSVKGRFTISRDNAKNTVYLQMNRLKPEDTAVYYCIVVANWKDTSTELDYWGQGTQVTVSS	low polyreactivity
QVQLQESGGGLVQAGGSLRLSCAASGSIFVSVTMGWYRQAPGKERELVASIGRGSTTNHADSVKGRFTISRDNAKNIVYLLMNSLKPEDTAVYYCASLESYGKYHGYWGQGTQVTVSS	low polyreactivity
QVQLVESGGGLVQAGGSLRLICSASGSTFNLYAMGWYRQAPWTERELVAAISYRGGTTYYADSVKGRFTISRDNAKHTVYLQMNSLKREDTAVYYCSAGWRPRSLRDASKYDFWGQGTQVTVSS	low polyreactivity

Sequence	polyreactivity (PSR sort gate)
QVQLVESGGGLVQAGGSLRLSCAASGRIFHTYGMGWYRQAPGKERELVAAITWTGGSTYYADSVKGRFTISRDNAKNTVYLQMNSLKPEDTAVYYCAADYPRDIIGSMDYWGQGTQVTVSS	low polyreactivity
QVQLVESGGGIFQEGGSLRLSCAASGLIFRSYDMGWYRQAPGKERELVAAITDLFWSTYYADSVKGRFTISRDNAKNTVYLQMYSLKPEDTAVYYCARDDWVYTNVEMDYWGQVTQVTVSS	high polyreactivity
QVQLVESGGGLVQAGGSLRISCAASGLTFYVYAMGWYRPAPGKERELVAAISGRGGRTYYADSVKGRFTISRDNAKNTVYLQMNSMKPEDTAVYYCAARYPRYRYVEYGYNYWGQGTQVTLSS	high polyreactivity
QVQLVESGGGLVQAGGSLRLSCAASGSIFRFNAMGWYRQAPGKERELVAAISASGGSTYYADSVKGRFTISRDNAKNTVYLQMNSLKPEDTAVYYCAARRTAGAYYGYNYWGQGTQVTVSS	high polyreactivity
QVHLVESGGGLVQAGGSLRLSCAASGFTFYQYAMGWYRQAPGKERELVAAITASGGSTYYADSVKRRFTISRDNAKNTVYLQMNSLKPEDTAVYYCAAERYFVLYRYYSYAYYYWGQGTQVTVSS	high polyreactivity
QVQLVESGGGLGQAGGSLRLICAASGRTFLYNAMGWYRQAPGNERELVASITSGGSTNYADSVKGRFTISRDNAKNTVNLQMNSVKPEDTAVYYCAADERRPYWQHSIGSGRPFDYWGQGTQVTVSS	low polyreactivity
QVQLVESGGGLVQAGGSLRLSCAASGRTFNRYAMGWYRQAPGKERELVAAINSVGSTYYADSVKGRFTISRDNAKNTVYLQMNSLKPEDTAVYYCNAVQGSRFGYWGQGTQVTVSS	high polyreactivity
QVQLVESGVGLVQAGGSLRLSCAASGSIFIRNAMGWYRQAPGKERELVAAISGSGSSTYYADSVKGRFTISRDTAKNTVYLQMNILKPEDTAVYYCNTDRTHSYQYGGYDYWGQGTQVTVSS	low polyreactivity
QVQLVESGGGLVQAGGRLRLSCAASGLTFKRYAMGWYRQAPGKERELVASITGNGGSTYYADSVKGRFTISRDNAKNTVYLQINSLKPEDTAVYYCNARRYVRTSQQPLYFYWGQGTQVTVSS	high polyreactivity
QVQLVESGGGLVQAGGSLRLSCAASGRTFRYYTMGWYRQAPGKEREFVAALSSTGGTYYADSVKGRFTISRDNAKNTVYLQMNSLKPEDTADYYCNVSSLNSYTSGTTYWGVDYWGQGTQVTVSS	low polyreactivity
QVQLVESGVGLVQAGGSLRLSSAASGRTFPSNNMGWYRQAPGKERELVAAISKNGGSTYYADSVKGRFTISRDNAMNTVYLQMNRLKPEDTAVYYWAATGVSSKRLASQRKLDYWGQGSQVTVSS	high polyreactivity
QVQLVESGGGLVQAGGSLRLSCAASGRTFPPYAMGWYRQAPGKERELVAAISGSGASTYYADSVKGRFTISRDNAKNTVYLQMNSLKPEDTAVYYCARYRGYWGRYYGVDYGYWGQGTQVTVSS	high polyreactivity
QLQLHESGGGLVQAGGCLSCTASGTIFGQGDMGWYRQAPGKERELVATINDGASTYYADSVKGRFTISRDKAKNTVYLKKNSLKPDDNAVYYCAVFTDITTYFGYWGQGTQVTVSS	low polyreactivity
QVQLVESGGGLVQAGGSLRLSCAASGFTFVRYTMGWYRQAPGKERELVAAINRSGGNTYYADSVKGRFTISRDNAKKTVYLQMNSLKPEDTAVYYCAAGYYVQVSLKDYYWGQGTQVTVSS	high polyreactivity
QVQLVESGGGLVQAGGSLRLSCAASGSTFGRYAMGWYRQAPGKERELVAAINFNGGRTYYADSVKGRFTISRDNAKNTVYLQMNSLKPEDTAVYYCNALQQYALSRYYWGQGTQVTVSS	high polyreactivity
QVQLVESGGGLVQAGGSLRLSCAASGFIFRTYAMGWYRQAPGTERELVATITGDGSTNYADSVKGRFTISRDNAKNTVYLQMNSLKPEDTAVYYCSRDDRLAGDYWGQGTQVTVSS	low polyreactivity
QVQLVESGGGLVQAGGSLRLSCAASVSTFGGYAMGWYRQAPGKERELDAAITYSGGSTYYADSVKGRFTISRDNAKNTVYLQMNSLKPEDTAVYYCNADDDDALPWWWPYVLDVDYWGQGTQVTVSS	low polyreactivity
QVQLVESGGGLVQLGGSLRLSCAASGSIIFSYAIGWSRQAPWKERELVADNRSSDDDTYYADSVKGRFTISRDNAQNTDYLDMNSLKPEDTGGYYCNADFGYWWDGRRYDYWVQGTQVTVSS	low polyreactivity
QVQLEESGGGLVQAGGSLRLSCAASGSIFVSVTMGWYRQAPGKERELVASIGRGSTTNHADSVKGRFTISRDNAKNIVYLLMNSLKPEDTAVYYCAALESYGKYHGYWGQGTQVTVSS	low polyreactivity
QVHLVESGGGLVQAAGSLRLSCAASGRTFPYNAKGWYRQAPGKERELVAAISSGGSTNYADSVKGRFTISRDNAKNTVYLQMNSLKPEDTAVYYCATKYQRRPYRYYYWGQGTQVTVSS	low polyreactivity
QVQLVESGGGLVQAGGSLRLSCAASGRTFDAYAMGWYRQAPGKERELVAAIRRGSSTNYADSVKGRFTISRDNAKNTVYLQMNSLKPEDTAVYYCAARRQWLGIRTGYNYWGQGTQVTVSS	high polyreactivity
